Test results taken from the DeepSol protein solubility set.

assay: soluble on expression in E. coli; label from the status in PepcDB or PDB records

Sequence	soluble on expression in E. coli
MAHHHHHHMNSTLVHDLQQFRYVTAFTNPLPWPHVRRVSIPGLRHEAPDLPFMANLISALSDCDVSLHKIHEHNDTDILQLVQVLQACLQFSLWSQNILKEKLLEVQATHVAKGVSAQQLENLEKRYHALEGEMAALHKDRGMLSLGTANLRTSLAQMEKTIKRQERQLQQERGRNAQLVAKLEKALCARAVAAPLMSAPRLPPPRESQQRPAGNRHASAPTHRTTKATTVYDSSRLPTDNADAHRDSIASLTSDTSYGDSCLSAEVAARTHSHVPQPCDSLDPPPPPFLDWRTLVRYIIHEEQRASVWASNHASPTAARATADERGIASKEELMPAAQHPSKPAAALPAAATQRVTEAQLDSFFAGLTAGVTTEVVAYSRAVAARVEEMVRAATQQWIQETAEAQQALMAQVQAALGSLGAELAVHKQLKDATPSPALRTVAMPVATSDASDPHAQLAPFSPVLASSSVRNSAAAALPAPCQHAGNALVTLANAPPTNDSKPLSQPPQTSASPLTPSIDSSPPASFLNSFVMSGTALCHSTTGCEVLDGGSKTRTPLPDFSPDILRTPPTSEHGTAAAPLGTGSDGPRSVVSRADDADERDVDVDLLPLDSSSSDSSSGSSQRSDGTADGVAEVSHAYARVLAKPSSPPPMYPNKTPTAAAFVVQPAAPTHPSANRTLSLHFSTRSDVSEGSSYGSSQMLRETRAQLQALLEEEEAAGRAKTHR	not soluble
MANAADDRRPKYQRIADTLREAIRSGEYGPGDRLPGENDLMATHGVARMTARQALSVLRDEGVAEARKGAGVFVREFRPLRRRGIQRLARQQWGNGRSIWSADIEDRSLDVDQVTVSEEAAPDGVAAVLDLADGETVCVRRRRFVLDGKPVLLATSYLPAALVAGSAITQEDTGKGGTYARLAELGHGPVHFREEIRSRMPSKAEASQLSVAAGTPVILICRTAFTDEGRAVEINEMTLDAASYVLEYDFDA	not soluble
MSLVSIDLPIEGRLARYDLTGRPVPFNSRDAKAFSRVAFAAAHVVADPLADNDPWLAPAIDWERTLAFRHRLWDLGLGVAESMDTAQRGMGLGWPEARELIRRSLAEARGRPDALIACGAGTDHLAPGPDVSIDDILAAYESQIEAIEAEGGRIILMASRALAAAAKGPEDYIRVYDRVLSQVKEPVIIHWLGEMFDPALEGYWGNADHMAAMKTCLDVLEAHAAKVDGIKISLLSKEKEIVMRRQLPKGVRMYTGDDFNYAELIAGDEEGHSDALLGIFDAIAPVASAALEALGSGRNGEFFELLEPTVPLSRHIFKAPTRFYKTGVVFLAYLNGLQDHFVMIGGQQSARSLVHLAELFRLADKAGALADPELATARMRRVLAMHGVEEGHHHHHH	soluble
KPYQVVGEKQEILNLIDNTTLDVSFTLPVSYAESVSLSALKNAEMWVTMDSEPSKRIPGKFKEISTQPNIDTNSYEAIVTITRPTDRNLLTGMTGQVHIAKQNKSNAMTLPTSAWVNKQEKQGEVWVMDSSTQQVSKVTLSLNESGAIESGLDNNDYVVIAGVERLVEGQVVKAWIREEGI	not soluble
MKEIKVNELTDNLFETISKEWMLVTAGTKDKFNTMTANWGGAGFLWNRPVAFIFIRPERYTFDFIEQNDYLTLSFLGEEHKEIHKICGSKSGRDMDKVKATGLSPLFTENGSITFEQARLTFECKKLYADLIKPGNFIDKSITDRWYGESHGGFHKMYVVEIVNVLSR	soluble
MSLDQPVVGLITKTDTNPFFVKMKQGAEAAASKDGAKLITAAGKFDGDNASQVTAIENMMTAGAKAILITPSDTKAIVPSIKKARAAGVMVVALDTPTDPQDATDALFATDNFKAGVLIGKYAKAALNGKPAKIATLDLAPGVSVGVLRHNGFLEGFGVKEGDPSVVCSQDTRGDQAKGQTAMENCLQKSPDINVVYTINEPAAAGAYRALKAAGKDKSVMIVSIDGGCEGVRNVKAGAIAATSQQYPLKMASLGVTAGVEYAKTGKKVSGYQDTGVTLITDKPMAGIDSKDTKFGLDNCWGNEGHHHHHH	soluble
GSGKSLLLKVILLGDGGVGKSSLMNRYVTNKFDSQAFHTIGVEFLNRDLEVDGRFVTLQIWDTAGQERFKSLRTPFYRGADCCLLTFSVDDRQSFENLGNWQKEFIYYADVKDPEHFPFVVLGNKVDKEDRQVTTEEAQTWCMENGDYPYLETSAKDDTNVTVAFEEAVRQVLAVEEQLE	soluble
MTTEIKKLDPDTAIDIAYDIFLEMAGENLDPADILLFNLQFEERGGVEFVETADDWEEEIGVLIDPEEYAEVWVGLVNEQDEMDDVFAKFLISHREEDREFHVIWKK	soluble
MIIQNEFNLYPSNMLPERFCYPEKYVRISNDTSLIPYIQPHNFHWWFENYGTEGAEVAYIFRNSILPDLNLIPFASNGEWEAYFDGNDVTGNSRVIVINLDNIENHEFFNSFEDWLELAIKDTW	not soluble
IADVVPLDQNNRILAYQGLMRIRARHCRLGIIALAEVANRNVEQFTSSDLGFCIGPRLNAAGRLDNMSIGVELLLANEMSKARELALDLDQLNQTRKEIEAGMKLEAIKICQNLTALFKELPYGITLYQPDWHQGVLGIV	not soluble
GPGSMEGPPPVCFRQCSFTYGAEPSTLHISQQCFSDYVWILVTEDDTCVPGVVLRFDPHDAGPCVGCESLNNLPSLPCEYLLGVRDHALTNILSSAIAHAIQSVGEQRPLLLCVSAAKTAKRLQTTEERMSFVRMVREKVVALAKGETC	not soluble
MGSDKIHHHHHHMSVPQRPHQFVLTLSCPSAAGQVAAVVGLLDRHRCYVDELTVFDDDLSARFFVRCVFHATDDADALRVDALRREFEPIAERFRMQWAIHDVAARPKVLIMVSKLEHCLADLLFRWKMGELKMDIVGIVSNHPDFAPLAAQHGLPFRHFPITADTKAQQEAQWLDVFETSGAELVILARYMQVLSPEASARLANRAINIHHSFLPGFKGAKPYHQAHARGVKLIGATAHFVTDDLDEGPIIEQVVERVDHSYRPEQLLAVGRDVECITLARAVKAFIERRVFLNGDRTVVFQ	not soluble
MGSDKIHHHHHHMLSLSKPLQEFYRLDKCLSKHGTRFEFVNDKEIICSPDESNTHTFVILEGVVSLVRGDKVLIGIVQAPFIFGLADGVAKKEAQYKLIAESGCIGYRLSSSQTLAIIEQNQLWREAFCWIVWKSQVLELRDKQLIGNNSYDQIRATLMTMIEWDEELRSRIGVMNYIHQRTRVSRSVVAEVLAALRKGNYIEMNKGKLISINRLPSEY	not soluble
MTIRFDNVSYTYQKGTPYQHQAIHDVNTEFEQGKYYAIVGQTGSGKSTLIQNINALLKPTTGTVTVDDITITHKTKDKYIRPVRKRIGMVFQFPESQLFEDTVEREMIFGPKNFKMNLDEAKNYAHRLLMDLGFSRDVMSQSPFQMSGGQMRKIAIVSILAMNPDIIVVDEPTAGLDPQSKRQVMRLLKSLQTDENKAIILISHDMNEVARYADEVIVMKEGSIVSQTSPKELFKDKKKLADWHIGLPEIVQLQYDFEQKYQTKLKDIALTEEAFVSLYKEWQHEK	not soluble
MEKLDGVANTLYVPLYGRIYVSKKFPEYFYDEMALKIEEKFTSGISKGSFEYTNMAYGARYYNMDKMIIKFIEEHKISNIILLGIGLETAYDRITQKCGLGEVNYYGIDLPEVIEIRKKYFGERKQETLIAGDMFEMEWKEQIDTSIPTLLIVSGVFQYFFEDKIIEFIKNLKKEFPYGELVFDTARKKTGLRFANWYIRRTGNLEALMHFYIEDSVDFSKKTDTILVEELTFFKDARELLRKKLNFITKLFMKIADSKRQALIIHLKWLEHHHHHH	not soluble
PQDAVIWLGAEKTGLKLTNSSNTFEGVIDGVDITVTKAQTSGETAIGLGIGADDEATKEQLNKFVDAYNTLISTIDEHTQIGSEDKKRGVLASDPTMRSIESQLSSLVRGEHGGMRLSEIGVTLDRHGKLKVDQEKFAEAQKNNSAGLEAMFNGDGALLDSMDAMAEPFLKFSSGAFKSRKEALQANLDRLSDKQTTLERKYDMSYKRYLKQFTQMNTLMTQMNQ	not soluble
MGSDKIHHHHHHMDLASKYFNGVNWRYIDHSSGLEPMQSFAFDDTFCESVGKDISDNVVRTWIHQHTVILGIHDSRLPFLKDGIDYLTNEIGYNAIVRNSGGLGVVLDQGVLNISLMFKGQTETTIDEAFTVMYLLISKMFEDENVDIDTMEIEHSYCPGKFDLSIDGKKFAGISQRRVRGGIAVQIYLCVEGSGSERALMMQTFYEHALKGEVTKFKYPEIEPSCMASLETLLNKTITVQDVMFLLLYAIKDLGGVLNMTPITQEEWQRYDTYFDKMIERNKKMIDQMQ	not soluble
